The values below come from publication PMC6430559, “Antigenicity and Immunogenicity of Differentially Glycosylated Hepatitis C Virus E2 Envelope Proteins Expressed in Mammalian and Insect Cells” (Journal of Virology, 2019).

What all share (test): BLI; Octet RED96; His6-tagged sE2 (5 ug/ml, 600 s) loaded on Ni2+-NTA biosensors and stabilised with EDC/NHS, quenched with 1 M ethanolamine pH 8.0; association 300 s, dissociation 300 s; 2-fold dilution series of CD81 or HMAb (IgG format); steady-state analysis by the legend, global fit by the methods; values may reflect bivalent IgG binding
In general terms: BLI is a label-free optical method that tracks binding on a fibre tip over time.

In experiment [1] the target is HEK293-derived soluble HCV E2 glycoprotein (sE2), genotype 1a H77c, residues 384 to 661, monomeric (hepatitis C virus genotype 1a, strain H77c) (UniProt P27958).
Experiment [2] has as its target Sf9-derived soluble HCV E2 glycoprotein (sE2), genotype 1a H77c, residues 384 to 661, monomeric (hepatitis C virus genotype 1a, strain H77c) (UniProt P27958).
In experiment [3] the target is T1, HEK293-derived soluble HCV E2 glycoprotein (sE2), genotype 1a H77c, residues 384 to 661, monomeric (hepatitis C virus genotype 1a, strain …, UniProt P27958 384-661, N-glycans at positions 417, 423, 430, 448, 476, 532, 540, 556, 576, 623 and 645; mostly complex- and high-mannose-type glycans).
T1 construct: HCV envelope glycoprotein E2 lacking the C-terminal transmembrane anchor, amino acids 384 to 661 of the strain 1a HCV H77c polyprotein; also called HEK293-derived sE2; HEK293 sE2; source: FreeStyle 293-F (HEK293-F) cells, transfected, secreted; purified from culture supernatant (HisTrap Ni2+-NTA, Superdex 200; monomer peak); not shown: His6, C-terminal, kept
The conditions noted are these: both partners purified.

The target of experiment [4] is T2, Sf9-derived soluble HCV E2 glycoprotein (sE2), genotype 1a H77c, residues 384 to 661, monomeric (hepatitis C virus genotype 1a, strain …, UniProt P27958 384-661, N-glycans at positions 417, 423, 430, 448, 476, 532, 540, 556, 576, 623 and 645; mainly paucimannose-type glycans, with or without one or two core fucose residues).
T2 construct: HCV envelope glycoprotein E2 lacking the C-terminal transmembrane anchor, amino acids 384 to 661 of the strain 1a HCV H77c polyprotein; also called Sf9-derived sE2; Sf9 sE2; source: Sf9 cells infected with recombinant baculovirus, secreted; purified from culture supernatant (HisTrap Ni2+-NTA, Superdex 200; monomer peak); not shown: His6, C-terminal, kept
The conditions noted are these: both partners purified.

T2 sequence (P27958 384-661): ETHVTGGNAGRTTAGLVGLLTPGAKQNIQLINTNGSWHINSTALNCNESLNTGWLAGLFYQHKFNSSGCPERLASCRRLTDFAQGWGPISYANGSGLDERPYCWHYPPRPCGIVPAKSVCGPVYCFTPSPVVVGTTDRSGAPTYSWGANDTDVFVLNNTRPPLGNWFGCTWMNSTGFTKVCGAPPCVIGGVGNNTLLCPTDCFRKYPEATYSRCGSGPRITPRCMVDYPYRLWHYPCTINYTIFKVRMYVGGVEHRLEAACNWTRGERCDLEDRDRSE
Chain of Sf9-derived soluble HCV E2 glycoprotein (sE2), genotype 1a H77c, residues 384 to 661, monomeric (hepatitis C virus genotype 1a, strain H77c) (P27958 384-661): as above
T1 sequence (P27958 384-661): as above
Chain of HEK293-derived soluble HCV E2 glycoprotein (sE2), genotype 1a H77c, residues 384 to 661, monomeric (hepatitis C virus genotype 1a, strain H77c) (P27958 384-661): as above

B1: Human monoclonal antibody (HMAb) HC33.1, specific for antigenic domain E of HCV E2 (antibody, V domains shown)
VH: EVQLVESGGGLVQPGGSLRLSCVASGLTFTNFAVSWVRQAPGKGLEWVSAISSSDGSTYYSDSVKGRFTISRDSSMNTLYLQMDSLRVEDTAVYFCARAVVSSDITYTYWSKYFDYWGQGTLVTVSS
VL: QSVVTQPPSVSAAPGQKVTISCSGGSFNIGNNYVSWYQQLPGTAPKLLIYDNDNRPSGIPDRFSGSKSGTSATLDITGLQTGDEADYYCGTWDSSLNVVVFGGGTKLTVL
As for B1, the results for the Kd in experiment [1] and in experiment [2] were 50 nM and 47 nM, respectively.

B2: Human CD81 large extracellular loop (CD81-LEL; CD81 residues 113 to 201) (domain or fragment, UniProt P60033 113-201, looked up)
chain: FVNKDQIAKDVKQFYDQALQQAVVDDDANNAKAVVKTFHETLDCCGSSTLTALTTSVLKNNLCPSGSNIISNLFKEDCHQKIDDLFSGK
notes: human CD81 large extracellular loop, residues 113 to 201; Cloned into the vector pHLsec (Addgene plasmid #99845 is the vector); The C-terminal His6 tag was stripped with carboxypeptidase A-agarose before biolayer interferometry; also called recombinant CD81; source: FreeStyle HEK293-F cells, transfected, secreted; purified from culture supernatant (HiTrap chelating HP Ni2+-NTA, Superdex 75); not …
With B2, the figures for the Kd in experiment [3] and in experiment [4] were 510 ± 22 nM and 440 ± 38 nM, respectively.
